Source: patent publication KR20180081029A (dated 2018)

T1: CD86 expressed on the cell surface of Raji B cells (human, UniProt P42081 24-329)
T1 construct: whole, on cells; Raji cells carry both CD80 and CD86; also called B7.2
T1 sequence (looked up): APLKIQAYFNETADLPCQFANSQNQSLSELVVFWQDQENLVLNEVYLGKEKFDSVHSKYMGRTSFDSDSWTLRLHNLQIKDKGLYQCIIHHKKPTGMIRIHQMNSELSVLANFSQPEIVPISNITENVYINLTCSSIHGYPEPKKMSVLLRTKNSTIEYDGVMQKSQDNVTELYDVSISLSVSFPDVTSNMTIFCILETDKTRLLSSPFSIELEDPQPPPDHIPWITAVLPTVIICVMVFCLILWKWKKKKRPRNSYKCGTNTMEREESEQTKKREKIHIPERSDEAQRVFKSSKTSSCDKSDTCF

T2: CD86 antigen (R&D systems, Cat. #. 141-B2-100) (human, UniProt P42081 26-245)
T2 construct: Bought reagent
T2 sequence (looked up): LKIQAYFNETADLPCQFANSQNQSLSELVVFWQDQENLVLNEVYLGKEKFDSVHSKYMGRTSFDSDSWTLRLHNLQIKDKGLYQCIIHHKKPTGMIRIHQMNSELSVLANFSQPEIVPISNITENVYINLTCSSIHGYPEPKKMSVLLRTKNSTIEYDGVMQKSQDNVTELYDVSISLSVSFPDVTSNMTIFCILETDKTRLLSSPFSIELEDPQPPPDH

B1: 3A2 (CD86) human antibody, IgG form (antibody, V domains shown)
VH: EVQLLESGGGLVQPGGSLRLSCAASGFTFSYYSMSWVRQAPGKGLEWVSSISYGPGYTYYADSVKGRFTISRDNSKNTLYLQMNSLRAEDTAVYYCARYYYYGYYYGYYGAFDYWGQGTLVTVSS
VL: EIVLTQSPGTLSLSPGERATLSCRASQSVSSSYLAWYQQKPGQAPRLLIYGASSRATGIPDRFSGSGSGTDFTLTISRLEPEDFAVYYCQQGYYSNSTFGQGTKVEIK
notes: Converted to IgG, expressed in 293F cells
B2: 3A2 (CD86), Fab clone selected from the Rz human antibody library (Fab, V domains shown)
VH: EVQLLESGGGLVQPGGSLRLSCAASGFTFSYYSMSWVRQAPGKGLEWVSSISYGPGYTYYADSVKGRFTISRDNSKNTLYLQMNSLRAEDTAVYYCARYYYYGYYYGYYGAFDYWGQGTLVTVSS
VL: EIVLTQSPGTLSLSPGERATLSCRASQSVSSSYLAWYQQKPGQAPRLLIYGASSRATGIPDRFSGSGSGTDFTLTISRLEPEDFAVYYCQQGYYSNSTFGQGTKVEIK
notes: Fab (on phage in the panning, soluble from E. coli in the ELISA, detected with anti-HA-HRP, so it carries an HA tag)

Assays:
[1] = biological target: T1, CD86 expressed on the cell surface of …; assay: FACS on Raji B cells (figure legend)
[2] = biological target: T2, CD86 antigen (R&D systems, Cat. #. …); assay: phage bio-panning of a Fab library on the bought antigen, binding checked by Fab ELISA (anti-HA-HRP)

Row | Binder | binding result [1] | binding result [2]
1 | B1 | binds | 
2 | B2 |  | binds
